The values below come from publication PMC7984235, “Structure‐based design of peptides that trigger Streptococcus pneumoniae cell death” (The Febs Journal, 2020).

To fix the notation:
B1: Streptococcus pneumoniae HigB toxin (enzyme)
chain: MHNIYFYKDKNGNEPVFDYMRELTSKKGKDSRIKLNKINDYIELLSQHGTRAGEPYIKHLDAEIWELRPLRDRILFVAWMDGSFVLLHHFMKRTQKTPKREIEQAKRELADLKERGLDNEK
B2: X (dsDNA)
DNA 1: GATTTTTTTTGATTTTTTT
DNA 2: AAAAAAATCAAAAAAAATC
B3: Pal-I (dsDNA)
DNA 1: AGCATCTAGGAAACTAGGTGCT
DNA 2: AGCACCTAGTTTCCTAGATGCT
B4: Streptococcus pneumoniae HigA antitoxin (natural protein)
chain: MKNNAIGSNWKDVRAELFSKEEILESDMRVAIMSELIEARNEKGISQKKLEEMSGVSQPVIARMETGKTSPQLDTVLKVLASLGKTLAVVPLEHEQV
notes: Cloned with Nde1/Xho1 into pET-21a(+); Forms a dimer within the HigB-(HigA)2-HigB heterotetramer; also called WT HigA; full-length HigA
B5: Pal-III (dsDNA)
DNA 1: TATTTTAATAACTTAAAAGT
DNA 2: ACTTTTAAGTTATTAAAATA
B6: Pal-II (dsDNA)
DNA 1: AACTTAAAAGTATTTACAAACAATAACTTTTAGGTT
DNA 2: AACCTAAAAGTTATTGTTTGTAAATACTTTTAAGTT
B7: B (dsDNA)
DNA 1: TAATAGAATAATAAGTATCACTCCTTTA
DNA 2: TAAAGGAGTGATACTTATTATTCTATTA
B8: Pal-IV (dsDNA)
DNA 1: TAGGTTATAATTGTTATTAGGAA
DNA 2: TTCCTAATAACAATTATAACCTA
B9: HigA^19–97 (domain or fragment)
chain: SKEEILESDMRVAIMSELIEARNEKGISQKKLEEMSGVSQPVIARMETGKTSPQLDTVLKVLASLGKTLAVVPLEHEQV
notes: HigA antitoxin, S. pneumoniae strain TIGR4, gene sp_1144, residues 19 to 97; Made 13C/15N-labelled for NMR; tag removed with thrombin (residues of the tag after the thrombin site may remain); also called deletion mutant HigA19-97

The target in data set [1] is B4. As to the kind of experiment: cell-based or functional assay.
For data set [2], the target named is T1, HigB;HigA (Streptococcus pneumoniae …, UniProt A0A0H2UQ08;A0A0H2UQ20 1-121;1-97, |). As to the kind of experiment: EMSA; up to 0.6 mM protein; ITC: 50 mM MES pH 6.0, 100 mM NaCl, 25 C; […]. To be noted: protein: recombinant;recombinant; chain copies: 2;2; blunt. Background: Mobility shift assays separate free from complexed probe on a gel.
For data set [3], the target named is T2, HigA (Streptococcus pneumoniae TIGR4, UniProt A0A0H2UQ20 1-97). As to the kind of experiment: ITC; n=0.53; ITC: 50 mM MES pH 6.0, 100 mM NaCl, 25 C; […]. To be noted: protein: recombinant; tags: pET-21a(+), stop codon in reverse primer; chain copies: 2; blunt. (In general: Isothermal titration calorimetry measures the heat released or taken up as one component is titrated into another.)

Data set [4] has as its target T1, HigB;HigA. The description is as above. To be noted: protein: recombinant;recombinant; chain copies: 2;2; blunt.
Data set [5] concerns the molecule itself. As to the kind of experiment: crystal structure; HigBA complex, sitting-drop vapor diffusion at 293 K; protein 11 mg/mL in 50 mM MES pH 6.0, 500 mM NaCl; native data to 2.30 Å, SeMet SAD phasing at 2.80 Å.
Data set [6] deals with T2, HigA. As to the kind of experiment: ITC; n=0.50; ITC: 50 mM MES pH 6.0, 100 mM NaCl, 25 C; […]. To be noted: protein: recombinant; tags: pET-21a(+), stop codon in reverse primer; chain copies: 2; blunt.
Data set [7] deals with T1, HigB;HigA. As to the kind of experiment: ITC; n=0.48; ITC: 50 mM MES pH 6.0, 100 mM NaCl, 25 C; […]. To be noted: protein: recombinant;recombinant; chain copies: 2;2; blunt.
Data set [8] deals with T1, HigB;HigA. As to the kind of experiment: ITC; n=0.49; ITC: 50 mM MES pH 6.0, 100 mM NaCl, 25 C; […]. To be noted: protein: recombinant;recombinant; chain copies: 2;2; blunt.
For data set [9], the target named is T2, HigA. As to the kind of experiment: ITC; n=0.51; ITC: 50 mM MES pH 6.0, 100 mM NaCl, 25 C; […]. To be noted: protein: recombinant; tags: pET-21a(+), stop codon in reverse primer; chain copies: 2; blunt.
Data set [10] deals with the molecule itself. As to the kind of experiment: SEC; oligomeric state from a molecular weight comparison with various reference proteins (Fig. S2).

As to B1, the “ribonuclease activity (fluorescence-labeled RNA substrate) of 2 μM HigBA after addition of 10 μM HigB α2 helix-mimicking peptide, relative to free HigB” value in data set [1] is about 80%. Consider B2, for which, in the data set with HigB;HigA [2], the binding result is “no binding”. For orientation: Kd means the constant that tells how readily two partners part at equilibrium. On to B3, for which the results for the Kd with HigA [3] and in the data set with HigB;HigA [4] were 1.61 ± 0.02 µM and 0.46 ± 0.03 µM, respectively. In the case of B4, the binding result in [5] is on record as “binds”. On to B5, for which the Kd with HigA [6] came out at 1.34 ± 0.01 µM; with HigB;HigA [7] it was 0.2 ± 0.01 µM. Take B6: the Kd with HigB;HigA [8] worked out at 0.7 ± 0.08 µM; in the data set with HigA [9] it was 2.53 ± 0.11 µM.

Turning to B7, the binding result in the data set with HigB;HigA [2] is given as “no binding”.

On to B8, for which the Kd with HigB;HigA [7] was 1.19 ± 0.14 µM. For orientation: stoichiometry N means the number of molecules, sites or subunits per partner or assembly. For the molecule B9, the “stoichiometry N” value in [10] was 2.
